How the values were obtained:
[1] = tested on: AncSZ; assay: phosphorylation enrichment, bacterial display (enrichment ratio); higher = better substrate or ligand; peptides without Tyr show the background
[2] = biological target: EPHB1 (UniProt P54762); assay: as above
[3] = biological target: EPHB2 (UniProt P29323); assay: as above
[4] = biological target: FGFR1 (UniProt P11362); assay: as above
[5] = biological target: FGFR3 (UniProt P22607); assay: as above
[6] = tested on: Fer (mouse); assay: as above
[7] = biological target: Fes (UniProt P07332); assay: as above
[8] = biological target: Fyn (UniProt P06241); assay: as above
[9] = biological target: Hck (UniProt P08631); assay: as above
[10] = biological target: Jak2 (UniProt O60674); assay: as above
[11] = biological target: MERTK (UniProt Q12866); assay: as above
[12] = tested on: c-Abl (mouse); assay: as above
[13] = tested on: c-Src; assay: as above
[14] = biological target: Grb2 SH2 (UniProt P62993); assay: SH2 binding enrichment of the phosphorylated peptide, bacterial display (enrichment ratio); higher = better substrate or ligand; peptides without Tyr show the background
[15] = biological target: SHP2-C SH2; assay: as above
[16] = biological target: c-Src SH2; assay: as above
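For SH2 binding enrichment of the phosphorylated peptide, bacterial display in this document: peptide library displayed on the E. coli surface as eCPX fusions, selected cells deep-sequenced, score is each peptide's frequency after selection divided by its frequency in the input.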
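For phosphorylation enrichment, bacterial display in this document: 11-residue human phosphosite peptides and single-mutation variants displayed on the E. coli surface, counted by deep sequencing, each peptide's frequency after selection divided by its frequency in the unselected input library; frequency after pTyr selection over input frequency; kinase dosed for 20-30% of maximal phosphorylation in three min.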

MERTK, sequence (Q12866 whole entry, looked up): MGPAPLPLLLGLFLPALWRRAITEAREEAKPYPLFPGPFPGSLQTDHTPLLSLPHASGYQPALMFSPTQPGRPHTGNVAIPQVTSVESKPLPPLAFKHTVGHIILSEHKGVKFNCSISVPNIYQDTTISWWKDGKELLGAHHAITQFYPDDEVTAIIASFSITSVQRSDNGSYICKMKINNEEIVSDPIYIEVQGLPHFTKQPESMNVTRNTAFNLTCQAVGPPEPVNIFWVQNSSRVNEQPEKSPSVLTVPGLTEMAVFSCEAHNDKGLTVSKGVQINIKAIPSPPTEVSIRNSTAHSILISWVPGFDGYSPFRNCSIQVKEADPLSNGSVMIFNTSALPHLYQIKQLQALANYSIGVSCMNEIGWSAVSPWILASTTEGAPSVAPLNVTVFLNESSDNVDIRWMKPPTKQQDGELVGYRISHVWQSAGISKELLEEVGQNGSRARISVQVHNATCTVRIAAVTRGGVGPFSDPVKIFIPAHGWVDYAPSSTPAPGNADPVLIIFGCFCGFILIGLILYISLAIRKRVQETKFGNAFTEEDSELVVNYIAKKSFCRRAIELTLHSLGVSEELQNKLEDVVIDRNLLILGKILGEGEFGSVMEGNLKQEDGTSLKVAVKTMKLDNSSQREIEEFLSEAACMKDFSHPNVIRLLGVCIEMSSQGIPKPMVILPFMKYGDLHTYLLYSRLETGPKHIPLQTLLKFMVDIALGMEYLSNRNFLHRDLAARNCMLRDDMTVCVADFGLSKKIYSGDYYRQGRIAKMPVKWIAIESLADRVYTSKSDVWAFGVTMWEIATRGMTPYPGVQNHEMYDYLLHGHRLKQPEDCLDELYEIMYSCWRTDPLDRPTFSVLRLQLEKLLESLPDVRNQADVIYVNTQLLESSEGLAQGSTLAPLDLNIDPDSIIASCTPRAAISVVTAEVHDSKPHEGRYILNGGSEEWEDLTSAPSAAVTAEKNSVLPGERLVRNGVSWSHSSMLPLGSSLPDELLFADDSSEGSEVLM
Fes, sequence (P07332 whole entry, looked up): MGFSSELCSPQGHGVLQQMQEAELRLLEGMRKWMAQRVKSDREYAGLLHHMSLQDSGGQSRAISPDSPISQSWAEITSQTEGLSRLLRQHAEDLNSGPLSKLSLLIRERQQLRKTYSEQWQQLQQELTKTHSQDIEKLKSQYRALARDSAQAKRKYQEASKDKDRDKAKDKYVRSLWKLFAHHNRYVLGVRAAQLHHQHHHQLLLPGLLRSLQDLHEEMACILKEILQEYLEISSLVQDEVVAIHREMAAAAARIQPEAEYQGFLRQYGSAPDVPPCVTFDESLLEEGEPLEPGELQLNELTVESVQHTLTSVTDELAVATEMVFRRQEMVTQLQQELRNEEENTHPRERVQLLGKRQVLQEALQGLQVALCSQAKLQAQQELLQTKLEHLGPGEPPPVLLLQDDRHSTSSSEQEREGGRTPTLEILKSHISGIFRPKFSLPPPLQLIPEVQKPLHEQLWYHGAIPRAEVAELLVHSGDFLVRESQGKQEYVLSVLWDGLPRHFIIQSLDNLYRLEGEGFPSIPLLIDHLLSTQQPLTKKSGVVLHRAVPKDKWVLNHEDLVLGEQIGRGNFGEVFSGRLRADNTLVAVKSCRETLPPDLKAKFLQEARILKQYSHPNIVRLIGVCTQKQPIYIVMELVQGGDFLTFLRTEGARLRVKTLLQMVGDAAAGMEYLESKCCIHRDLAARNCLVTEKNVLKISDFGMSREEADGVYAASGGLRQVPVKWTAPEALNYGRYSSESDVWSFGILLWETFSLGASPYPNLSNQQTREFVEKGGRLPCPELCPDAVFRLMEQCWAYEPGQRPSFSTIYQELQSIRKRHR
Fyn, sequence (P06241 whole entry, looked up): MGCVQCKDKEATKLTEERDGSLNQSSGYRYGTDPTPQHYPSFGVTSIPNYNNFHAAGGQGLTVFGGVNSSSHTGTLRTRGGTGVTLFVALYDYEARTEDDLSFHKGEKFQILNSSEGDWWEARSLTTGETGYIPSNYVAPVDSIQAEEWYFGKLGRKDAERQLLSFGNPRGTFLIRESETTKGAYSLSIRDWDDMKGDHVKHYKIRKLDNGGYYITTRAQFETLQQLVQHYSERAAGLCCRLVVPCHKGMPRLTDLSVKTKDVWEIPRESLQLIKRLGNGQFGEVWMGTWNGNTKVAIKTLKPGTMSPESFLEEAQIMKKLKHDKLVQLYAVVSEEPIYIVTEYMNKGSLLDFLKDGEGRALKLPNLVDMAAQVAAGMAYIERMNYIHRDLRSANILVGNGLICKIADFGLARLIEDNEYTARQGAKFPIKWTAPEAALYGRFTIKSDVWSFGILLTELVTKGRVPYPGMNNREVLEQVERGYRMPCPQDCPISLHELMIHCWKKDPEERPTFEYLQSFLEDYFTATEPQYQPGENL
EPHB1, sequence (P54762 whole entry, looked up): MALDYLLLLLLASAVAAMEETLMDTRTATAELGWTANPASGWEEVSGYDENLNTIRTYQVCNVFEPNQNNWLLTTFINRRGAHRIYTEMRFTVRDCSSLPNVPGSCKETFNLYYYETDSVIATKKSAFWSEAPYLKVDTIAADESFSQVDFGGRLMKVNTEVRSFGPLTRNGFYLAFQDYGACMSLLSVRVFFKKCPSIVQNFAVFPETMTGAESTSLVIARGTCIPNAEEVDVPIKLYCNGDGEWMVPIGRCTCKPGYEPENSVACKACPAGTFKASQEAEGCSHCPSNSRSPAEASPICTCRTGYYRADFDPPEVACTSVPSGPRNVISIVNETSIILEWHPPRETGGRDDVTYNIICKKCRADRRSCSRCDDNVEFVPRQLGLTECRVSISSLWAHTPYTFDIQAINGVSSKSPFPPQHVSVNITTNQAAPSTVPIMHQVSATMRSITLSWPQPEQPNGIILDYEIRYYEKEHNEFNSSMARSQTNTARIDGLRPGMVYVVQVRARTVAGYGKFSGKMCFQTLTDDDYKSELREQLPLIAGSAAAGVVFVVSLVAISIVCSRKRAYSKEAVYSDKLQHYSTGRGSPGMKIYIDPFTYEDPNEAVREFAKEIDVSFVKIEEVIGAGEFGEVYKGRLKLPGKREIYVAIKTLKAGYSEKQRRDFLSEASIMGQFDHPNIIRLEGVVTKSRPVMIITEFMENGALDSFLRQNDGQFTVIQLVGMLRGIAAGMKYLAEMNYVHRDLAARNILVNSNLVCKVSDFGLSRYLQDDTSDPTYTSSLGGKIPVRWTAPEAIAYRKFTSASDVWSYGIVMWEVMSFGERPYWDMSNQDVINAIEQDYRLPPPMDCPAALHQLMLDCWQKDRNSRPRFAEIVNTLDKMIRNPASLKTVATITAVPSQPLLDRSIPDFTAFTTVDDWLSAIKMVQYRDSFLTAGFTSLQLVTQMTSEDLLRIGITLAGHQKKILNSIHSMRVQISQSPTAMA
Hck, sequence (P08631 whole entry, looked up): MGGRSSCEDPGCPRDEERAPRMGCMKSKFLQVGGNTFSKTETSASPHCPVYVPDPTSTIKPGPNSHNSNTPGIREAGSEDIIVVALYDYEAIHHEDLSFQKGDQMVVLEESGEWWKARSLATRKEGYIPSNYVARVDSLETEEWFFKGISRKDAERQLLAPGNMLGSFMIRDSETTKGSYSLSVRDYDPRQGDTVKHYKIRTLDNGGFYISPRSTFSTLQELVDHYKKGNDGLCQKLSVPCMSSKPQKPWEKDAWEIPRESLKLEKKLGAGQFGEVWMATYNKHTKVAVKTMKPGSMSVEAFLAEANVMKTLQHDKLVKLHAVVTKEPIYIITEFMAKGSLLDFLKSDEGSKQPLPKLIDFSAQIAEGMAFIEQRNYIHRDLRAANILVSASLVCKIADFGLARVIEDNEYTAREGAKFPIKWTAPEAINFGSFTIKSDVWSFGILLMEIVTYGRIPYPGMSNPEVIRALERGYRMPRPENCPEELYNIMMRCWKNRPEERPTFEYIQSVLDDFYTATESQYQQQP
FGFR1, sequence (P11362 whole entry, looked up): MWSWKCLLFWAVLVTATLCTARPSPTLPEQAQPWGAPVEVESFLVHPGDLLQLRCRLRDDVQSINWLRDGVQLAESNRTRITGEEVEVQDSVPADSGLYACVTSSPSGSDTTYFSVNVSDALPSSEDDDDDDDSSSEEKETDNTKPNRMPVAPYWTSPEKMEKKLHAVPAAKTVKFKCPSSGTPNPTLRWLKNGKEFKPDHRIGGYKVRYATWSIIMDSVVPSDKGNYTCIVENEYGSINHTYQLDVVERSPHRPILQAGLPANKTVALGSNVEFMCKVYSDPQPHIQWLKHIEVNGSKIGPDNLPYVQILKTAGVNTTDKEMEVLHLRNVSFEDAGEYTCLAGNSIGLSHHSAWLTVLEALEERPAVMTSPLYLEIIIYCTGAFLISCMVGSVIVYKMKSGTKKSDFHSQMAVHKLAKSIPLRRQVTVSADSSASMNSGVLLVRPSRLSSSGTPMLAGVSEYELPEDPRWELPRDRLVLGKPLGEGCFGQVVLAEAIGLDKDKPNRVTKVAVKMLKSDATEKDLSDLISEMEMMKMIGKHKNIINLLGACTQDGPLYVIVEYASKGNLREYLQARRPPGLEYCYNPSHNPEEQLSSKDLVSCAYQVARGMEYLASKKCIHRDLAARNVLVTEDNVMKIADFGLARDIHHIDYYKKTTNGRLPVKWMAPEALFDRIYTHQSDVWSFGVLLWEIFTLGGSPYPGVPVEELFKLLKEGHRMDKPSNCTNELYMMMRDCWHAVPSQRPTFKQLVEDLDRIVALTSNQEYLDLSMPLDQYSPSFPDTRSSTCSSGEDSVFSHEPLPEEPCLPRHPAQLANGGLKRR
Grb2 SH2, sequence (P62993 whole entry, looked up): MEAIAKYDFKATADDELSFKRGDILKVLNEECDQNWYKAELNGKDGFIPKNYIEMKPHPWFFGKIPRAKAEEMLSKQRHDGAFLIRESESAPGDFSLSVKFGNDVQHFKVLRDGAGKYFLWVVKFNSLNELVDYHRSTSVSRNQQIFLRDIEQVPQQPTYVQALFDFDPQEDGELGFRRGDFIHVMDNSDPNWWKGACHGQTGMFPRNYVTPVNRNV

Row | Sequence | phosphorylation enrichment [1] | phosphorylation enrichment [2] | phosphorylation enrichment [3] | phosphorylation enrichment [4] | phosphorylation enrichment [5] | phosphorylation enrichment [6] | phosphorylation enrichment [7] | phosphorylation enrichment [8] | phosphorylation enrichment [9] | phosphorylation enrichment [10] | phosphorylation enrichment [11] | phosphorylation enrichment [12] | phosphorylation enrichment [13] | SH2 binding enrichment [14] | SH2 binding enrichment [15] | SH2 binding enrichment [16]
1 | GRQGIYTENER [GPR143_Y231] | 0.724 | 0.496 | 0.427 | 0.464 | 0.62 | 0.466 | 0.951 | 0.511 | 0.439 | 0.548 | 0.456 | 0.581 | 0.581 | 0.966 | 0.682 | 0.607
2 | GRSTFYWPSPR [GAGE12J_Y10_R13S_YF] | 0.643 | 0.541 | 0.693 | 0.665 | 0.708 | 0.399 | 0.697 | 0.466 | 0.559 | 0.713 | 6.43 | 0.726 | 0.551 | 1.49 | 1.64 | 1.26
3 | GRSTYYWPRPR [GAGE12J_Y10] | 0.697 | 0.474 | 0.507 | 0.537 | 0.481 | 0.504 | 0.444 | 0.524 | 0.615 | 0.543 | 0.748 | 0.93 | 0.665 | 0.668 | 0.386 | 0.419
4 | GRTPLYMDRQG [AGXT_Y194_G190R] | 0.575 | 0.452 | 0.443 | 0.396 | 0.415 | 0.344 | 0.498 | 0.495 | 0.702 | 0.472 | 0.432 | 0.473 | 0.528 | 0.891 | 1.12 | 0.542
5 | GRVFVYRLSEQ [ITGAE_Y551_YF] | 0.81 | 0.494 | 0.511 | 0.553 | 0.663 | 0.425 | 1.02 | 0.534 | 0.492 | 0.927 | 0.404 | 0.655 | 0.585 | 1.38 | 1.87 | 0.857
6 | GRVLGYGAFGK [FLT4_Y853] | 0.431 | 0.364 | 0.354 | 0.348 | 0.474 | 0.371 | 0.57 | 0.446 | 0.427 | 0.662 | 0.339 | 0.434 | 0.41 | 1.28 | 0.851 | 0.556
7 | GSERDYTYEEL [EIF2S2_Y174] | 1.36 | 0.602 | 0.645 | 0.535 | 0.711 | 0.6 | 1.13 | 1.09 | 1.21 | 1.29 | 0.707 | 0.977 | 1.63 | 0.969 | 0.761 | 0.944
8 | GSRGKYSSGFC [ATM_Y332_R337C] | 0.495 | 0.441 | 0.406 | 0.446 | 0.539 | 0.401 | 0.559 | 0.464 | 0.431 | 0.545 | 0.51 | 0.611 | 0.472 | 1.25 | 1.16 | 0.938
9 | GSSSSYGQHGS [HRNR_Y517] | 0.376 | 0.315 | 0.343 | 0.396 | 0.293 | 0.316 | 0.472 | 0.376 | 0.339 | 0.352 | 0.309 | 0.322 | 0.256 | 0.868 | 1.43 | 0.375
10 | GTFVIYVRFGG [FLNB_Y1687_YF] | 1.15 | 0.392 | 0.49 | 0.52 | 0.731 | 0.4 | 1.18 | 0.353 | 0.433 | 0.711 | 0.379 | 0.854 | 0.465 | 1.34 | 0.968 | 0.782
11 | GTSLIYWTLFT [G6PC3_Y214] | 1.82 | 3.96 | 2.09 | 5.01 | 4.45 | 1.68 | 1.97 | 8.42 | 6.02 | 3 | 5.81 | 11.2 | 6.99 | 0.746 | 0.652 | 0.457
12 | GVIKEYQIRQV [USH2A_Y3623] | 0.627 | 0.376 | 0.349 | 0.454 | 0.476 | 0.353 | 0.575 | 0.356 | 0.363 | 0.606 | 0.359 | 0.422 | 0.372 | 0.902 | 0.689 | 0.501
13 | GVRFIYTIDGS [DCX_Y105_YF] | 1.41 | 0.628 | 0.737 | 0.546 | 0.843 | 0.669 | 1.59 | 1.04 | 0.674 | 1.45 | 0.48 | 0.924 | 1.01 | 0.915 | 0.933 | 0.507
14 | GVRLYYRVMES [RB1_Y454] | 1.03 | 0.587 | 0.574 | 0.535 | 0.711 | 0.538 | 1.26 | 0.438 | 0.437 | 1.02 | 0.419 | 0.731 | 0.333 | 0.871 | 0.829 | 0.973
15 | GVSYIYTIDGS [DCX_Y105_R102S] | 1.11 | 0.618 | 0.498 | 0.494 | 0.711 | 0.412 | 1.08 | 5.77 | 2.71 | 0.944 | 1.28 | 0.663 | 4.85 | 0.794 | 16.3 | 0.726
16 | HAVYIYDICHV [TWNK_Y508_V507I] | 2.46 | 8.01 | 8.7 | 1.57 | 1.65 | 9.37 | 1.77 | 7.62 | 5.31 | 0.989 | 6.7 | 4.12 | 5.31 | 0.801 | 0.979 | 0.707
17 | HCHEGYILHGA [SVEP1_Y2921] | 1.45 | 1.27 | 0.746 | 0.722 | 0.768 | 0.45 | 1.78 | 0.888 | 0.827 | 1.94 | 0.945 | 1.61 | 1.12 | 1.01 | 1.21 | 0.812

Row | Sequence | phosphorylation enrichment [1] | phosphorylation enrichment [2] | phosphorylation enrichment [3] | phosphorylation enrichment [4] | phosphorylation enrichment [5] | phosphorylation enrichment [6] | phosphorylation enrichment [7] | phosphorylation enrichment [8] | phosphorylation enrichment [9] | phosphorylation enrichment [10] | phosphorylation enrichment [11] | phosphorylation enrichment [12] | phosphorylation enrichment [13] | SH2 binding enrichment [14] | SH2 binding enrichment [15] | SH2 binding enrichment [16]
18 | HEKFLYFLPAS [DYNC2H1_Y346] | 2.17 | 1.72 | 1.3 | 1.08 | 1.82 | 0.931 | 1.8 | 1.87 | 2.12 | 2.82 | 3.9 | 1.4 | 1.08 | 0.925 | 0.868 | 0.676
19 | HESEIYCKVCY [CSRP3_Y57] | 1.41 | 0.925 | 0.782 | 1.03 | 0.855 | 2.51 | 1.25 | 5.52 | 7.96 | 1.14 | 2.65 | 1.01 | 7.01 | 1.58 | 1.81 | 1.8
20 | HFGCIYHGTLL [MET_Y1093_V1092I] | 1.4 | 0.714 | 0.951 | 0.984 | 0.931 | 0.716 | 1.46 | 1 | 0.949 | 1.38 | 0.527 | 1.34 | 4.15 | 0.758 | 0.548 | 0.58
21 | HFVDEYDRTIE [KRAS_Y32_P34R] | 2.01 | 0.875 | 0.805 | 0.644 | 0.932 | 0.794 | 1.66 | 0.653 | 0.701 | 1.67 | 0.58 | 1.36 | 0.989 | 1.06 | 0.682 | 1.14
22 | HHTNEYEYDEL [TGM1_Y134_D132N] | 1.32 | 0.497 | 0.585 | 0.69 | 0.813 | 0.736 | 1.17 | 0.952 | 0.489 | 1.18 | 0.594 | 1.58 | 0.901 | 0.902 | 0.676 | 1
23 | HKANEYYPVVI [ADAMTS18_Y764_L769I] | 2.1 | 1.01 | 0.599 | 17.4 | 13.1 | 1.26 | 0.746 | 0.676 | 0.723 | 2.19 | 0.558 | 0.61 | 0.427 | 0.665 | 1.06 | 0.587
24 | HLMLQYDAVVN [SLC25A32_Y152_R147H] | 1.75 | 0.93 | 1.51 | 1.19 | 1.35 | 1.81 | 2.01 | 1.15 | 1.39 | 1.51 | 1.27 | 1.08 | 0.885 | 1.01 | 0.725 | 2.42
25 | HLQQSYLPRGT [TEX45_Y396] | 1.04 | 0.622 | 0.773 | 0.97 | 0.927 | 0.697 | 1.26 | 0.939 | 0.661 | 1.38 | 0.66 | 1.59 | 1.32 | 0.442 | 0.458 | 0.3
26 | HNELYYEEAEH [VANGL1_Y345] | 2.06 | 1.21 | 0.993 | 1.63 | 2.08 | 1.81 | 1.53 | 0.751 | 0.798 | 1.32 | 1.11 | 0.936 | 0.708 | 0.871 | 0.95 | 0.798
27 | HNQDGYSFPSR [LDLR_Y845_YF] | 1.94 | 0.762 | 0.939 | 0.906 | 1.08 | 0.871 | 1.45 | 0.996 | 0.748 | 1.55 | 1.15 | 1.31 | 1.02 | 1.06 | 0.76 | 4.23
28 | HNVPIYEGFGL [ACTA1_Y168_A172G_YF] | 1.35 | 24.2 | 27.6 | 0.507 | 0.519 | 18.8 | 4.3 | 14.9 | 13.5 | 0.575 | 12.1 | 7.97 | 8.62 | 0.85 | 0.823 | 0.513
29 | HTDDGYMPMSP [IRS1_Y612] | 1.94 | 0.787 | 0.756 | 1.45 | 0.757 | 0.824 | 1.59 | 0.839 | 0.834 | 1.37 | 0.883 | 1.04 | 0.503 | 0.771 | 0.882 | 2.53
30 | HTVVSYAEVRA [CLOCK_Y378] | 1.12 | 0.627 | 0.809 | 0.62 | 0.599 | 0.52 | 1.23 | 0.897 | 0.899 | 0.779 | 0.509 | 0.781 | 0.742 | 0.721 | 27.9 | 3.25
31 | HVIKLYGACSQ [RET_Y791] | 1.13 | 0.875 | 0.768 | 0.627 | 0.84 | 0.545 | 1.58 | 0.489 | 0.661 | 1.6 | 0.423 | 1.1 | 0.713 | 0.643 | 0.763 | 0.537
32 | IDPFTYTPFGS [CYP3A4_Y432_I431T_YF] | 0.724 | 0.431 | 0.705 | 0.486 | 0.523 | 0.587 | 0.851 | 0.91 | 1.18 | 0.755 | 0.561 | 0.581 | 2.88 | 0.746 | 0.863 | 0.597
33 | IDPYTYTPFGS [CYP3A4_Y432_I431T] | 1.3 | 0.563 | 0.6 | 3.24 | 2.25 | 0.698 | 0.914 | 7.04 | 3.36 | 0.907 | 1.16 | 0.63 | 6.82 | 0.92 | 0.885 | 1.17

From the supplement of paper PMC10065799, “High-throughput profiling of sequence recognition by tyrosine kinases and SH2 domains using bacterial peptide display” (eLife, 2023)
